Reference: the RNAGym collection of RNA variant scans (doi:10.1073/pnas.2313332121)
Variants at the floor of the assay were thinned out.

B1: TPR 5TU (parent)
chain: GGAUCUUCUCGAUCUAACAAAAAAGACAAAUCUGCCACAAAGCUUGAGAGCAUCUUCGGAUGCAGAGGCGGCAGCCUUCGGUGGCGCGAUAGCGCCAACGUUCUCAACUAUGACACGCAAAACGCGUGCUCCGUUGAAUGGAGUUUAUCAUG

Variants of: B1
Test: polymerase ribozyme fitness, log enrichment relative to wild type (log ratio); higher = more active; in vitro selection for triplet polymerase activity
Procedure, shortened: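 Input and output libraries were sequenced on Illumina after a single in vitro selection round, run in triplicate on PCR-built, transcribed mutant libraries of each subunit of a heterodimeric triplet polymerase ribozyme. Selection annealed libraries to a biotinylated primer, the partner subunit and triplets, incubated them frozen at −7 °C, then gel-excised extended constructs for streptavidin-bead capture and RT-PCR. Genotypes with ≥10 input reads and ≥1 read per output were kept. Fitness is the logarithm, taken in base 2, of genotype enrichment divided by wild-type enrichment, using inverse-variance-weighted replicate averages.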

Variant	polymerase ribozyme fitness (log ratio)
GGAUCUUCUCGAUUUAACAAAAAAGACAAAUCUGCCACAAAGCUUGAGAGCAUCUUCGGAUGCAGAGGCGGCAGCCUUCGGUGGCGUGAUAGCGCCAAUGUUCUCAACUAUGACACGCAAAACAUGUGCUCCGUUGAAUGGAGUUUAUCAUG [C14U C87U C99U G124A C125U]	-2.54
GGAUCUUCUCGAUCUAACAAAAAAGACAAAUCUGCCACAAAGCUUGAGAGCAUCUUCGGAUGCAGAGGCGGCAGCUUUUGGUUGCGCGAUAGCACCAACGUUCUUAACUAUGACACGGAAAACGCGUGCUCGGUUAAAUGGAGUUUAUCAUG [C76U C79U G83U G94A C105U C118G C132G G136A]	≤ -4.2
GGAUCUUCUCGAUCUAACAAAAAAAACAAAUCUGCCACAAAGCUUGAGAGCAUCUACGGAUGCAGAGGCGGCAGCCUUCGGUGGCGCGAUAGCGCCAACGUUCUCAACUAUGACACGCAAAACGCGUGCUCCGUUGAAUGGAGUUUAUCAUG [G25A U56A]	-1.67
GGAUCUUCUCGAUCUAACAAACAAGACAAAUCUGCCACAAAGCUUGAGAGCGUCUUCGGAUGCAGAGGCGGCAGCCUUCGGUGGCGCGAUAGCGCCAACGUUCUCCACUAUGACACGUAAAACGCGUGCUCCGUUGAAUGGGGUUUAUCAUG [A22C A52G A106C C118U A142G]	-3.06
GGAUCUUCUCGAUCUAACAAAAAAGACAAAUCUGCCACAAAGCUUGAGAGGAUCUUCGGAUUCAGAGGCGGCAGCCUUCGGUGGCGCGAUAACGCAAACGUUCUCAACUAUGACACGCAAAACGCGUGCUCCGUUGAAUGGAGUUUAUCAUG [C51G G62U G92A C96A]	≤ -4.2
GGAUCUUCUCGAUCUAACAAAAUAGACAAAUCUGCCACAAAGCUUGAGAGCAUCAUCGGACGCAGAAGCGGCAGCCUUCGGUGGCGUGAUAGCGCCAACGUUCUCAACUAUGACACGCAAAACGCUUGCUCCGUUCAAUUGAGUUUAUCAUG [A23U U55A U61C G67A C87U G126U G136C G140U]	≤ -4.2
GGAUCUUCUCGAUCUAACAAAAAAGACAAAUCUGCCACAAAGCUUGAGAGCAUCUUCGGAUGCAGAGGCGGCAGCCUUCGGUGGCGCGAUAGAGCCAACGUUCUCAACUAUGACACGCAAAACGAGUGCUCCGUUGAAUGGAGUUUAUCAUG [C93A C125A]	-1.68
GGACCUUCUCGAUCUAACAAAAAAGACAAAUCUGCCACAAAGCUUGAGAGCGUCUUCUGAUGCAGAGGCGGCAGCCUUCGGUGGCGCGAUAGCGCCAACGUUCUCAACUAUGACACGCAAAACGCGUGCUCCGUUGAAUGGAGUUUAUCAUG [U4C A52G G58U]	-0.303
GGAUCUUCUCGAUCUAACAAAAAAGACAAAUCUGCCACAAAGCUUGAGAGCAUCUUCGGAUGCAGAGGCGGCAGUCUUCGGUGGCGCGAUAGCGUUAACGUUCUCAACUAUGACACGCAAAACGCGUGCUCCGUUGAAUGGAGUUUAUCAUG [C75U C95U C96U]	-0.218
GGAUCUUCUCGAUCUAACAAAAAAGACAAAUCUGCCACAAAGCUUGAGAGCAUCUUCGGAUGCAGAGGCGGCAGCCUUCGGUGGCGCGAUAGCGCGAACGUACUCAACCAUGACACGCAAAACGCGUGCUCCGUUGAAUGGAGUUUAUCAUG [C96G U102A U109C]	≤ -4.2
GGAUCUUCUCGAUCUAACAAAUAAGACAAAUCUGCCACAAAGCUUGAGACCAUCUUCGGAUGCAGAGGCGGCAGCCUUCGGUGGCGCGAUAGCGCCAACGUUCUCAACUAUGACACGCAAAACGCGUGCUCCGUUGAAUGGAGUUUAUCAUG [A22U G50C]	-2.99
GGAUCUUCUCGAUCUAACAAAAAAGACAAAUCUGCCACAAAGCUUGAGCGCAUCUUCGGAUGCAGAGGCGGCAGCCUUCGGUGGCGCGAUAGCGCCAACGUUCUCAGCUAUGACACGCAAAACGCGUGCUCCGUUGAAUGGAGUUUAUCACG [A49C A107G U151C]	≤ -4.2
GGAUCUUCUCGAUCUAACAAAAAAGACAAAUCUGCCACAAAGCUUGAGAGUAUCUUCGGAAGCAGAGGCGGCAGCCUUCGGUGUCGCGAUAGCGCCAACGUUCUCAACUAUGACACGCAAAACGCGUGCUCCGUUGAAUGGAGUUUAUCAUG [C51U U61A G84U]	-2.8
GGAUUUUCUCGAUCUAACAAAAAAGACAAAUCUGCCACAAAGCUUGAGAGCAUCUUCGGAUGCAGAGGCGGCAGCCUUCGGUGGCGCGAUUGCGCCAACGUUCUCAACUAUGACACGCAAAACGCGUGCUCCGUUGAAUGGAGUUUAUCAUG [C5U A91U]	-3.99
GGAUCUUCUCGAUCUAAGAAAAAAGACAAAGCUGCCACAAAGCUUGAGAGCGUCUUCGGAUGCAGAGGCGGCAGCCUUCCGUGGCGCGAUAGCGCCAACGCUCUCAACUAUGACACGCAAAACGCGGGCUCCGUUGAAUGGAGUUUAUCAUG [C18G U31G A52G G80C U101C U127G]	≤ -4.2
GGAUCUUCUCGAUCUAACAAAAAAGACAAAUCUGCCACAAAGCUUGAGAACAUCUUAGGAUGCAGAGGCGGCAGCCUUCGGUGGCGCGAUAGCGCCAACGUUCUCAACUAUGACACGCAAAACGCGAGCUCCGUUGAAUGGAUUUUAUCAUG [G50A C57A U127A G143U]	-4.04
GGAUCUUCUCGAUCUAACAAAAAAGACAAAUCUGCUACAAAGCUUGAGAGCAUCUUCGGAUGCAGAGGCGGCAGCCUUCGGUGGCGUGAUAGCGCCAACGUUCUCAACUAUGACACGCAAAACGCGUGCUCCGUUGAAUGGACUUUAUCAUG [C36U C87U G143C]	-3.81
GGAUCUUCUCGAUCUAACAAAAAAGUCAAAUCUGCCACAAAGCUUGAGAGCAUCUUCGGAUGCAGAGGCGGCAGCCUUCGGUGGCGCGAUAGCGCCUACGUUCUCAACUAUGACACGCGAAACGCGUGCUCCGUUGAAUGGAGUUUAUCAUG [A26U A97U A119G]	-2.34
GGAUCUUCUCGUUCUAACAAAAAAGACAAAUCUGCCACAAAGCUUGAGAGCAUCUUCGGAUGCAGAGGCGGCAGCCUUCGGUGGCGCGAUAGCGCCAACGUUCUCAACUAUGACACGCAAAUCGCGUGCUCCGUUGAAUGGAGUUUCUCAUG [A12U A122U A147C]	-0.484

Variant	polymerase ribozyme fitness (log ratio)
GGAUCUUCUCGAUCUAACAAAAAAGACAAAUCUGCCACAAAGCUUGAGAGCAUCUUCGGAUGCAGAGGCGGCAGCCUUCGGUGGCGCGAUGGCGUCAACGUUCUCAACUAUGACACGCAAAACGUGUGCUCCGUUGAAUGGAGUUUAUCAUG [A91G C95U C125U]	-4.09
GGAUCUUCUCGAUCUAACAAAAAAGACAAAUCUGCCACAAAGCUUGAGAACAUCUUCGGAUGCAGAGGCGGCAGCCUUCGGUGGCGCAAUAGCGUCAACGUUCUCAACUAUGACACGCAAAAGGCGUGCUCCGUUGAAGGGAGUUUAUCAGG [G50A G88A C95U C123G U139G U151G]	≤ -4.2
GGGUCUUCUCGAUCUAACAAAAAAGACAACUCUGCCACAAAGCUUGAGAGUAUCGUCGGAAGCAGAGUCGGCAGCCUUCGGUCGCGCGAUAGCGCCAACGUUCUCAACUAUGACACGCAAAACGCGUGCUCCGUUGAAUGGGGUUUAUCAUG [A3G A30C C51U U55G U61A G68U G83C A142G]	≤ -4.2
GGAUCUUCUCGAUCUGACAAAAAAGACAAAUCUGCCAUAAAGCUUGAGAGCAUCUUCGGAUGCAGAGGCGGCAGCCUUCGGAGGCGCGAUAGCGCGAACGUUCUCAACUAUGACACGCAAAACGCGUGCUCCGUUGAAUGGAGUUUAUCAUG [A16G C38U U82A C96G]	-1
GGAUCUUCUCGAUCUAACAAAAAAGACAAAUCUGCCACAAAGCUUGAGAUCAUCUUCGGAUGCAGAGGCGGCAGCCUUCGGUGGCGCGAUAGCGCCAACGUUCUCAACUAUGACACGCAAAACGCGUGCUCCGUUGAAUGGAGUUUAUCGUG [G50U A150G]	-2.11
GGAUCUUCUCGAUCUAACAAAAAAGCCAAAUCUGCCACAAAGCUUGAGAGCAUCUUCGGUUGCAGAGGCGGCAGCCUUCGGUGGCGCGAUAGCGCCAACGUUCUCACCUAUGACGCGCAAAACGCGUGCUCCGUUGAAUGGAGUUUAUCAUG [A26C A60U A107C A115G]	≤ -4.2
GGAUCUUCUCGAGCUAACAAAAAAGACAAAUCUGCAACAAAGCUUGAGAGCAUCUUCGGAUGCAGAGGCGGCAGCCUUCGGUUGCGCGAUAGCGCCAAAGUUCUCAACUAUGACACGCAAAACGCGUGCUCCGUUGAAUUGAGUUUAUCAUG [U13G C36A G83U C99A G140U]	-4
GGAUCUUCUCGAUCUAACAAAAAAGACAAAUCUGCCACAAAGCUUGAGAGCAUCUUCGGAUGCAGAGGCGGCAGCCUUCGGUGGCGCGAUAGCGCCAACGUUCUCAACUAUGACACGCAAAACGCGAUCUCCGUUGAAUGGAGUUUAUCAUG [U127A G128U]	-3.18
GGAUCUUCUCGAUCUAACAAAAAAGACAAAUCUGCCACAAAGCUUGAGAGCAUCUUCGGAUGCAGAGGCGGCAGCCUUCGGUCGCGCGAUAGCGCCAACGUUCUCAACUAUGACACGCAAAACGCGUGCUCCGUUGAAUGGAGUUUAUCAUG [G83C]	-0.934
GGAUCUUCUCGAUCUAACAAAAAAGACAAAUCUGCCACACAGCUUGAGAUCAUCUUCGGAUGCAGAGGCGGCAGCCUUCGGUGGUGCGAUAGCGCCAACGUUCUCAACUAUGACACGCAAAACGCGUGCUCCGUUGAAUGGAGUUUAUCAUG [A40C G50U C85U]	0.316
GGAUCUUCUUGAUCUAACAAAAAAGACAAAUCUGCCACAAAGCUUGAGAGCAUCUUCGGAUGCAGAGGCGGCAGCCGUCGGUGGCGAGAUCGCGCCAACGUUCUCAAUUAUGACACGCAAAACGCGUGCUCCAUUGAAUGGAGUUUAUCAUG [C10U U77G C87A A91C C108U G133A]	≤ -4.2
GGAUCUUCUCGAUCUAACUAAAAAGACAACUCUGCCACAAAAGUUGAGAGCAUGUUCGGAUGCAGAGGCUGCAGCCCUCGGUGGCGCGAUAGCGCGAACGUUCUCAGCUAUGACACGCAAAACGCGUGCUCCGUUGAAUGGAGUUUAUCAUG [A19U A30C G42A C43G C54G G70U U77C C96G A107G]	≤ -4.2
GGAUCUUCUCGAUCUAACAAAAAAGACAAAUCUGCCACAAAGCUUGAGAGCAUCUUCGGAUGCAGGGGCGGCAGCCUUCGGUCGCGCGAUAGCGCCAACGUUCUCAACUAGGACACGCAAAACGCGUGCUCCGUUGAAUGGAGUUUAUCAUG [A66G G83C U111G]	≤ -4.2
GGAUCUUCUCGAUCUAACAAAAAAGACAAAUCUGUCACAAAGCUUGAGAGCAUCUUGGGAUGCAGAGGCGGCAGCCUUCGGUGGCUCGAUAGCGCCAACGUUCUCAACUAUGACACGCAAAACGCGUGCUCCAUUGAAUGGAGUUUAUCAUG [C35U C57G G86U G133A]	-3.89
GGAUCUUAUCGAUCUAACAAAAAGGACAAAUCUGCCACAAAGCUUGAGAGCAUCUUCGGAAGCAGAGGCGGCAGCGUCCGGUGUCGCGAUAGCGCCAACGUUCUCAACUAUGACACGCAAAACGCGUGCUCCGUUGAAUGGAGUUUAUCAUG [C8A A24G U61A C76G U78C G84U]	≤ -4.2
GGAUCUUCUCGAUCUAACAGAAAAGACAAAUCUGCCACAAAGCUUGAGAGCAUCUUCGGAUGCAGAGGCGGCAGCCUUCGGUGGCGCGAUAGCGCCAACGUUCCCAACUAUGACACUCAAAACGCGUGCUCCGUUGAAUGGAGUUUAUCAUG [A20G U104C G117U]	-0.102
GGAUCUCCUCGAUCUAACAAAAAAGACAAAUCUGCCACGAAGCUUGAGAGCAUCUUCGGAUGCAGAGGCGGCAGCCUUCGGUGGGGCGAUAGCGCCAACGUUCUAAUCUAUGACACGCAAAACGCGUGCUCCGUUGAAUGGAGUUUAUCAUG [U7C A39G C85G C105A A107U]	≤ -4.2
GGAUCUUCUCGAUCUAACAAAAAAGACAAAUCUGCCACAAAGCUUGAGAGCAUCUUCGGGUGCAGAGGCGGCGGCCUUCGGUGGAGCGAUAGCGCCAACGUUCUCAACUAUGACACGCAAAACGCGUGCUCCGUUGAAUGGAGUUUAUCAUG [A60G A73G C85A]	-2.02
GGAUCUUCUCGAUCUAACAAAAAAGACAAAUCUGCCACAAAGCUUGAGAGCAUUUUCGGAUGCAGAGGCGGCAGCCUUCGGUGGCGCGAUAGUGCCAACGUUCUGAACUAUGACACGCAAAACGCCUGCUCCGUUGAAUGGAGUUUAUCAUG [C54U C93U C105G G126C]	-2.01
